Laboratory results: publication PMC2615213, “Serum Activity of Platelet-Activating Factor Acetylhydrolase Is a Potential Clinical Marker for Leptospirosis Pulmonary Hemorrhage” (PLoS ONE, 2009)

Test system: CCCCCCCCCCCCCC(=O)OC[C@H](COP(=O)([O-])OCC[N+](C)(C)C)OC(=O)CCC(=O)Oc1ccc([N+](=O)[O-])cc1
Test: purified protein
Conditions: chromogenic substrate; mean of duplicate experiments

With “rL-PAF-AH (recombinant His-tag-L-PAF-AH, LA2144) (Leptospira interrogans serovar Lai str. 56601)” as the substance, how does the Km read?
The Km was 610 µM.

What about the kcat of the same substance?
Its kcat is 6.61 s⁻¹.

What about the kcat/Km of the same substance?
The kcat/Km was 10800 M⁻¹ s⁻¹.
